Reference: patent US20150258192A1, “COMPOSITIONS AND METHODS FOR PREVENTING OR TREATING CHRONIC LUNG ALLOGRAFT DYSFUNCTION (CLAD) AND IDIOPATHIC PULMONARY FIBROSIS (IPF)” (priority 2014, published 2015)
No end group written: not given here.

How the values were obtained:
Experiment in all cases: Kinase Profiling Assay
Assay type in all cases: biochemical
Details in all cases: peptide 100 μM
EphB4(h) = biological target: T1, EphB4(h) (Homo sapiens, UniProt P54760)
T1 sequence (P54760 16-987): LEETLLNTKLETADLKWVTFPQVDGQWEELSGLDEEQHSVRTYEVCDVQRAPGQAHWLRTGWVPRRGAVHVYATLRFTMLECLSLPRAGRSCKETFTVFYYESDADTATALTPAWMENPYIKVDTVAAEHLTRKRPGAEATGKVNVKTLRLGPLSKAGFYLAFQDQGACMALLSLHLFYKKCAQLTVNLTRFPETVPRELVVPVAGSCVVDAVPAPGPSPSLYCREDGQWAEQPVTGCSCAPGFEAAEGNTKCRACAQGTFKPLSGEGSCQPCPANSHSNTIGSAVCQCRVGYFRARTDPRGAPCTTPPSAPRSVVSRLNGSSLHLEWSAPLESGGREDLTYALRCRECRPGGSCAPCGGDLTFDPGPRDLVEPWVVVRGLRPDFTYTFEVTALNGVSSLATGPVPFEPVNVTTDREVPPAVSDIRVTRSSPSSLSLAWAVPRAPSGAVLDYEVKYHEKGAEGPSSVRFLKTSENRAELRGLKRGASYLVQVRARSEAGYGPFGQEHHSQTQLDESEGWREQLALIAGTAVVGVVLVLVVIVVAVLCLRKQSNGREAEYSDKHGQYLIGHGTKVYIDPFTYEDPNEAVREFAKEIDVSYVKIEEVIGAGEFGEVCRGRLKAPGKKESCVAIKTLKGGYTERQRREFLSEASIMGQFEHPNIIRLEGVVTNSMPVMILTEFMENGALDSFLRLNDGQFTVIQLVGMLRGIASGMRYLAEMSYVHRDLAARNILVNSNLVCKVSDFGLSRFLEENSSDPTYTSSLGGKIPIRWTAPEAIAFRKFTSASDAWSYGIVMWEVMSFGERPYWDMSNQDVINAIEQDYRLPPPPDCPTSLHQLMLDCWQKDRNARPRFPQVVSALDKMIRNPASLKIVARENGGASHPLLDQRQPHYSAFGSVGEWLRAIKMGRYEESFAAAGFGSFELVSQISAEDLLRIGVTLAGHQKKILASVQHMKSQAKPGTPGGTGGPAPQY
Description: (§1) Every kinase activity measurement was conducted in duplicate.
(§2) Specifically, in these assays, a positively charged substrate is phosphorylated with a radiolabeled phosphate group from an ATP if the kinase is not inhibited by an inhibitor peptide. The positively charged substrate then is attracted to a negatively charged filter membrane, quantified with a scintillation counter, and compared to a 100% activity control.
(§3) In addition to determining the IC50 of the compound, the specificity of MK2 inhibitory peptides was assessed by examining activities of all 266 human kinases available for testing in the Millipore kinase profiling service (Table 1).

Lck(h) activated = biological target: T2, Lck(h) activated (Homo sapiens, UniProt P06239)
T2 construct: purchased Millipore
T2 sequence (P06239 whole entry): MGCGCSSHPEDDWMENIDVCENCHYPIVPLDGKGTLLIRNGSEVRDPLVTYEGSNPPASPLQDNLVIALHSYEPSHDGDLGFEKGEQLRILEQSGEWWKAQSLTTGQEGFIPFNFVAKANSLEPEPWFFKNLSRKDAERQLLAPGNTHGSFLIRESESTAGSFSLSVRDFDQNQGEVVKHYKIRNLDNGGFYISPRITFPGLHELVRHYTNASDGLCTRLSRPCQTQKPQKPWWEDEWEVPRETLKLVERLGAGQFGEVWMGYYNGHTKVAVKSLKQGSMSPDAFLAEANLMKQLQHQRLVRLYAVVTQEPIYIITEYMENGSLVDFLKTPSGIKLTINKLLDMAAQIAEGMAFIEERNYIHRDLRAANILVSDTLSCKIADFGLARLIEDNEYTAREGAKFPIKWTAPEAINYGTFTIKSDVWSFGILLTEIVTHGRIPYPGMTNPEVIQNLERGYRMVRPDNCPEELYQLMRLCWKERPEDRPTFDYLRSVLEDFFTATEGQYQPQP
Description: as §1, §2, §3

MAPK2(h) = biological target: T3, MAPK2(h) (Homo sapiens, UniProt P28482)
T3 construct: purchased Millipore
T3 sequence (P28482 whole entry): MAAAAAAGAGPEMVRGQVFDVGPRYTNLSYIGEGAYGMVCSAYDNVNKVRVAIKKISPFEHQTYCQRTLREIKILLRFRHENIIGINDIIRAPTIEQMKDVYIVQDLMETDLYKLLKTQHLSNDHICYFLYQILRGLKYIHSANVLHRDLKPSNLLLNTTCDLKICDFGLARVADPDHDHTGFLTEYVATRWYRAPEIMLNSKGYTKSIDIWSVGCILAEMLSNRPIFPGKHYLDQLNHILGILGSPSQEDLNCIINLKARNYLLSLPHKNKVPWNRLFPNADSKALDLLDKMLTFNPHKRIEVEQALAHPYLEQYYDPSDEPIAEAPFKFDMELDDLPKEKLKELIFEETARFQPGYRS
Description: as §1, §2, §3

NLK(h) = biological target: T4, NLK(h) (Homo sapiens, UniProt Q9UBE8)
T4 construct: purchased Millipore
T4 sequence (Q9UBE8 1-527): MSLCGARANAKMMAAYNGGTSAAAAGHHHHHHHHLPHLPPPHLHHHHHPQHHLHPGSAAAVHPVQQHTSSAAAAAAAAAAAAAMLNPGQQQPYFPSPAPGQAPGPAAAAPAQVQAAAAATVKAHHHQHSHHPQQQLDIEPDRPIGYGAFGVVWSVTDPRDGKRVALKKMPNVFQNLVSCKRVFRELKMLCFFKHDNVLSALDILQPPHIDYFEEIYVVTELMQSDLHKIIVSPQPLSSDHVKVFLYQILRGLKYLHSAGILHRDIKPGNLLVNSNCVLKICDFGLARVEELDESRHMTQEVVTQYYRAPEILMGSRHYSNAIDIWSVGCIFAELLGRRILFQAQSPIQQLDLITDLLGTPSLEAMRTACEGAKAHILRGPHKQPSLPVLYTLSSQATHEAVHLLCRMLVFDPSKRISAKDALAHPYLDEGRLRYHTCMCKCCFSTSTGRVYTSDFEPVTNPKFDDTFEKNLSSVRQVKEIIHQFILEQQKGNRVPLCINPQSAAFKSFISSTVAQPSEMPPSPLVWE
Description: as §1, §2, §3

PTK5(h) = PTK5(h) (Homo sapiens, UniProt P42685)
Chain of PTK5(h) (P42685 whole entry): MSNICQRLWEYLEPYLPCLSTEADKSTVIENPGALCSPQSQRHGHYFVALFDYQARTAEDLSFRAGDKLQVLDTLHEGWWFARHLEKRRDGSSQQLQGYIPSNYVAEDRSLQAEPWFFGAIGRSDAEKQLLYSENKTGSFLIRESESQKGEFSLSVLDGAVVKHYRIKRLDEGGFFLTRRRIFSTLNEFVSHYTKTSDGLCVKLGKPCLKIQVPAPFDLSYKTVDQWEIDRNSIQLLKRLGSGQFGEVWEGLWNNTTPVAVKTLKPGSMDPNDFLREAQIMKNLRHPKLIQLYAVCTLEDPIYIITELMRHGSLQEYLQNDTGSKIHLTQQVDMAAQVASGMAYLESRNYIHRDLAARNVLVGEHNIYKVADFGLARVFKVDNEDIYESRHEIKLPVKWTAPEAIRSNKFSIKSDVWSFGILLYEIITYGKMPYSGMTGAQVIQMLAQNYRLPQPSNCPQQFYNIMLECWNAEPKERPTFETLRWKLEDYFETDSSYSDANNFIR
Description: as §1, §2, §3

cKit(D816V)(h) = cKit(D816V)(h) (Homo sapiens, UniProt P10721, D816V)
Description: as §1, §2, §3

## HRRIKAWLKKIKALARQLGVAA (Mammal) [MMI-0500]
EphB4(h)
  % activity: 38%
Lck(h) activated
  % activity: 76%
MAPK2(h)
  % activity: 60%
NLK(h)
  % activity: 19%
PTK5(h)
  % activity: 96%
cKit(D816V)(h)
  % activity: 30%

## YARAAARQARAKALNRQLGVA (Mammal) [MMI-0200]
EphB4(h)
  % activity: 131%
Lck(h) activated
  % activity: 90%
PTK5(h)
  % activity: 108%
cKit(D816V)(h)
  % activity: 118%

## YARAAARQARAKALARQLGVAA [MMI-0100]
EphB4(h)
  % activity: 62%
NLK(h)
  % activity: 100%
PTK5(h)
  % activity: 135%

## FAKLAARLYRKALARQLGVAA [MMI-0300]
EphB4(h)
  % activity: 44%
Lck(h) activated
  % activity: 243%
MAPK2(h)
  % activity: 98%
NLK(h)
  % activity: 87%
PTK5(h)
  % activity: 132%
cKit(D816V)(h)
  % activity: 60%

## KAFAKLAARLYRKALARQLGVAA [MMI-0400]
EphB4(h)
  % activity: 28%
Lck(h) activated
  % activity: 216%
MAPK2(h)
  % activity: 93%
NLK(h)
  % activity: 90%
PTK5(h)
  % activity: 129%
cKit(D816V)(h)
  % activity: 35%
